Patent publication US20240034757A1

Target: CXCL9_HUMAN (human) (UniProt Q07325)
Assay: yeast surface display FACS re-test

Chain of CXCL9_HUMAN (human) (Q07325 23-125 limits assumed): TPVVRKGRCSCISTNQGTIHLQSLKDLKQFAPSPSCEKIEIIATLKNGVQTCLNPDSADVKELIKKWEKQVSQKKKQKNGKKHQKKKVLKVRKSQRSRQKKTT

B1: P1126_AMBCA (protein)
chain: KPQILQRTDKSTDSEWDPQTCPETCIPSKNITCSDGCVCVKLGEEEEGTCFNMTGVDWLGSPSDD
  % cells over threshold fluorescence: 56%
